Data from patent EP1997885A1 (AXXAM S.p.A., dated 2008).
Changes are numbered by the printed parent chain. In names and notes the source's numbering stands. Blank lines part the entries; values can stand above or below the molecule they belong to.

Columns and labels:
[1] = molecular target: recombinant (His6)-tagged DsRed2; experiment: size exclusion chromatography on Superdex 200, 2 mg/mL, self-association
[2] = molecular target: recombinant (His6)-tagged EGFP; experiment: as above
[3] = molecular target: AsGFP499(S103K), recombinant his-tagged (Anemonia sulcata); experiment: pseudo-native SDS-PAGE, self-association
[4] = molecular target: AsGFP499(S103K), recombinant his-tagged (Anemonia sulcata); experiment: size exclusion chromatography on Superdex 200, 2 mg/mL, self-association
[5] = molecular target: the molecule itself; experiment: pseudo-native SDS-PAGE, self-association
[6] = molecular target: AsGFP499(S103K/R150E), recombinant his-tagged (Anemonia sulcata); experiment: size exclusion chromatography on Superdex 200, 2 mg/mL, self-association; first peak
[7] = molecular target: AsGFP499(S103K/R150E), recombinant his-tagged (Anemonia sulcata); experiment: size exclusion chromatography on Superdex 200, 2 mg/mL, self-association; second peak
[8] = molecular target: AsGFP499(S94T/S103K/R150K/S171N/K206R), recombinant his-tagged (Anemonia sulcata); experiment: size exclusion chromatography on Superdex 200, 2 mg/mL, self-association; first peak
[9] = molecular target: AsGFP499(S94T/S103K/R150K/S171N/K206R), recombinant his-tagged (Anemonia sulcata); experiment: size exclusion chromatography on Superdex 200, 2 mg/mL, self-association; second peak

B2: AsGFP499(S103K/T159K/F173E), recombinant his-tagged (other)
chain: MYPSIKETMRVQLSMEGSVNYHAFKCTGKGEGKPYEGTQSLNITITEGGPLPFAFDILSHAFQYGIKVFAKYPKEIPDFFKQSLPGGFSWERVSTYEDGGVLKATQETSLQGDCIICKVKVLGTNFPANGPVMQKKTCGWEPSTETVIPRDGGLLLRDKPALMLADGGHLSCEMETTYKSKKEVKLPELHFHHLRMEKLNISDDWKTVEQHESVVASYSQVPSKLGHN
notes: Reported as a monomer; not shown: (His6) tag and vector-encoded residues of pET28a(+)
- binding result [5]: no binding

B3: AsGFP499(S103K/F173E) (other)
chain: B2 chain with K159T
notes: Only tested on the pseudo-native gel; reported as partly monomeric; also called AsGFP499 (S103/F173E); not shown: tag and vector-encoded residues of the bacterial expression vector
- binding result [5]: binds

B4: AsGFP499(S94T/S103K/T159K/F173E), recombinant his-tagged (other)
chain: B2 chain with S94T
notes: as for B2
- binding result [5]: no binding

B6: AsGFP499(S94T/S103K/R150K/S171N/K206R), recombinant his-tagged (protein, not shown: small tags and cut ends)
chain: B2 chain with S94T, R150K, K159T, S171N, E173F, K206R
- Apparent MW [kDa] [8]: 39 kDa
- Apparent MW [kDa] [9]: 23 kDa

Results, then the molecule that gave them:

- Apparent MW [kDa] [1]: 79 kDa
Molecule: recombinant (His6)-tagged DsRed2

- Apparent MW [kDa] [2]: 27 kDa
Molecule: recombinant (His6)-tagged EGFP

- MW on pseudo-native SDS-PAGE [3]: < 50 kDa
- Apparent MW [kDa] [4]: 39 kDa
B1: AsGFP499(S103K), recombinant his-tagged (protein, not shown: small tags and cut ends)
chain: B2 chain with K159T, E173F

- Apparent MW [kDa] [6]: 39 kDa
- Apparent MW [kDa] [7]: 23 kDa
B5: AsGFP499(S103K/R150E), recombinant his-tagged (protein, not shown: small tags and cut ends)
chain: B2 chain with R150E, K159T, E173F
